For data set [1], the target named is T1, DDX21Fl (human, UniProt Q9NR30 1-783).
T1 sequence: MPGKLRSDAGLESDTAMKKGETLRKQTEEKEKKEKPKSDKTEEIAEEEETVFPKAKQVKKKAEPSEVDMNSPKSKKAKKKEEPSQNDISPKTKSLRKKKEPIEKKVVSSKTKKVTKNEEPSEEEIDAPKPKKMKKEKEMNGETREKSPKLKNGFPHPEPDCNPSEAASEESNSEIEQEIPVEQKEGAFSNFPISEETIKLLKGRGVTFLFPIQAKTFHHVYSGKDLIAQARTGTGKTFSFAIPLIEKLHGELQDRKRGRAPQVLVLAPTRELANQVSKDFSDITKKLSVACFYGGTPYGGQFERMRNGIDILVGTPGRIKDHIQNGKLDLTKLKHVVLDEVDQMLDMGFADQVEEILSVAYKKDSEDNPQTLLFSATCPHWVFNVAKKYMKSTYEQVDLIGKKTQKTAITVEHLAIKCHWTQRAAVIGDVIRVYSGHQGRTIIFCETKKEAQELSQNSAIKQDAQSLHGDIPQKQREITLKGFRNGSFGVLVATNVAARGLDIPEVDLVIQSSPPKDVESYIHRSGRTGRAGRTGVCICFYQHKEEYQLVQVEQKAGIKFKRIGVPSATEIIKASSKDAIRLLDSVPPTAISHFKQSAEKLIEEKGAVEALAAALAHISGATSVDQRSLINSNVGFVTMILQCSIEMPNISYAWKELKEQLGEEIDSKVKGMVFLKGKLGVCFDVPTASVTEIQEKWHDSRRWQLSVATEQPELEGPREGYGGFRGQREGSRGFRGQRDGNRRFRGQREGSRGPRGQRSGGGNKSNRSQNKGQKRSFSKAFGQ
Briefly: fluorescence polarization; no ATP; 50 mM KCl; FP: 50 mM Tris pH 7.5, 50 mM KCl, 5 mM MgCl2, no ATP; Hill-slope fit; temperature not given in the material. Particulars: protein: recombinant; tags: N-terminal Trx-His6, cut with thrombin; chain copies: 2; label: 5'-FAM; G4. On the technique in general: In fluorescence polarisation assays a small probe gives low polarisation when free and higher when bound to something large.

The target of data set [2] is T2, DDX21Fl monomer (human, UniProt Q9NR30 1-783, L611R;A612R;A613R;A614R;L615R;A616R).
T2 sequence: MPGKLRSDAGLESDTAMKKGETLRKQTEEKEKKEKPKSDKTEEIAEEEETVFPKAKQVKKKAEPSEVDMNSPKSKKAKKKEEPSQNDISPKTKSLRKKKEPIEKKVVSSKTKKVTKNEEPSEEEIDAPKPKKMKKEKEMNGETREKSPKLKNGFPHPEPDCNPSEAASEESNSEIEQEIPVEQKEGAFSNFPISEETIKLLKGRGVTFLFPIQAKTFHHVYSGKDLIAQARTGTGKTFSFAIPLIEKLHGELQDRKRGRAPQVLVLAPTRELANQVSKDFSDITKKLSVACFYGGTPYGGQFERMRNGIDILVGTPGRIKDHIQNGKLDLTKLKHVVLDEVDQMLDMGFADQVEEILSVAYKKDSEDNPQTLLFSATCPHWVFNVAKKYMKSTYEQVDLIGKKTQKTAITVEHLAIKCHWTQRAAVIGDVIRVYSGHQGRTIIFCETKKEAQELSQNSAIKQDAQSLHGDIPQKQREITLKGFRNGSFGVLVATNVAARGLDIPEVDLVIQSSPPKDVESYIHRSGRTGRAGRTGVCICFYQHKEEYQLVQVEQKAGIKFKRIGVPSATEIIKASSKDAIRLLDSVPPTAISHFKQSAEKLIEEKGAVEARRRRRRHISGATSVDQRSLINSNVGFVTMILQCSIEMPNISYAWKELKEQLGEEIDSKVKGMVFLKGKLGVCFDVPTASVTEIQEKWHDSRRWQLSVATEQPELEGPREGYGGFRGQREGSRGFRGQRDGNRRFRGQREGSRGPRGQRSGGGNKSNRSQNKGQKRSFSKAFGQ
Nature of the data set: fluorescence polarization; FP: 50 mM Tris pH 7.5, 50 mM KCl, 5 mM MgCl2, no ATP; Hill-slope fit; temperature not given in the material. Particulars: protein: recombinant.

Data set [3] deals with T3, DDX21Core (human, UniProt Q9NR30 186-564).
T3 sequence: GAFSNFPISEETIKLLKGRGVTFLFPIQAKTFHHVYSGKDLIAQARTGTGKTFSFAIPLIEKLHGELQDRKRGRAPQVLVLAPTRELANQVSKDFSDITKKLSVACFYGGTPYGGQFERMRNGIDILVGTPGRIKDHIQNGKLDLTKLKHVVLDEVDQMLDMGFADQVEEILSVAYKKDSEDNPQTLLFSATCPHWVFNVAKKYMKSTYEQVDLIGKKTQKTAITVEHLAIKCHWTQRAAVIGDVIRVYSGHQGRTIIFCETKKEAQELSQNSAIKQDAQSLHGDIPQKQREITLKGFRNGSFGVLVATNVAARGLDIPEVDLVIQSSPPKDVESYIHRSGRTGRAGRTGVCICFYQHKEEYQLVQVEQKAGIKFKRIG
The data set is described as above. Conditions: protein: recombinant.

In data set [4] the target is T4, DDX21ΔN monomer (human, UniProt Q9NR30 186-783, L611R;A612R;A613R;A614R;L615R;A616R).
T4 sequence: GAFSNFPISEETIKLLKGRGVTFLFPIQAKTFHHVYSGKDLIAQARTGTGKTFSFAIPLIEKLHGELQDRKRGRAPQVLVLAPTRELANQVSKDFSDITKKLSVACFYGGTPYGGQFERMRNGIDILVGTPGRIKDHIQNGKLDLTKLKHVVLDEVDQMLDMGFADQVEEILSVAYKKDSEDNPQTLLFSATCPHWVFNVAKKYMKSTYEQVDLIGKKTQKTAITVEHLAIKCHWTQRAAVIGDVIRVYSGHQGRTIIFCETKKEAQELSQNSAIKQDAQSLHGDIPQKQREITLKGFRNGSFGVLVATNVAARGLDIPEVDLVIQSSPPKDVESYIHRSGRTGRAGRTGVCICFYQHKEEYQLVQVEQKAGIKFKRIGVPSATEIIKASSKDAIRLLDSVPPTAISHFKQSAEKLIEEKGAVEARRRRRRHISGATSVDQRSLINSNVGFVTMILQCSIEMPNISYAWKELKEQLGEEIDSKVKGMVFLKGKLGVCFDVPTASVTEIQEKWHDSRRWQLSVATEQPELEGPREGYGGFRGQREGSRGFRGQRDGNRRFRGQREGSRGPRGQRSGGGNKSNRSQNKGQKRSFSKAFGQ
The description is as above. Conditions: protein: recombinant.

The mark [5] stands for this setting: label: 5'-FAM on 15-mer, 3' overhang 15 nt.

Among the data in PMC7721647, “The Human RNA Helicase DDX21 Presents a Dimerization Interface Necessary for Helicase Activity” (iScience, 2020) are Kd values, retold here.

What is called Kd is the constant that tells how readily two partners part at equilibrium. With GUUGGGGCGGGCGUUGGGUUUGGGGGGACG (structured_RNA) [Q2 RNA G-quadruplex], in data set [1], the Kd was found to be 2.6 ± 0.1 nM.
Take GUUUCGGAUCGACGC (ssRNA) [15-mer ssRNA]: the Kd in data set [2] (label: 5'-FAM, single strand) came to 29.9 ± 2.7 nM; in data set [3] (label: 5'-FAM, single strand), 1520 ± 112 nM; in data set [4] (label: 5'-FAM, single strand), 24.9 ± 1.7 nM.

B1: dsRNA 15/30mer 3' overhang (dsRNA)
RNA 1: GUUUCGGAUCGACGC
RNA 2: GCGUCGAUCCGAAACUAUACUUAAUUUUAA
In the case of B1, the Kd in data set [2] (setting [5]) came to 13.9 ± 2.5 nM; in data set [3] (setting [5]), 353 ± 27.9 nM; in data set [4] (setting [5]) it was 122 ± 19.3 nM.
